According to US12331106B2, “Anti-angiopoietin-2 antibodies that induce Tie2 activation” (Institute for Basic Science, priority 2018, dated 2025):

B1: 2C8: mouse monoclonal anti-Ang2 antibody; VH SEQ ID NO: 19, VL SEQ ID NO: 21; hybridoma KCLRF-BP-00417 (antibody, V domains shown)
VH: QVQLQQSGPQLVRPGASVKISCKASGYSFTSYWMHWVKQRPGQGLEWIGMIDPSDSETRLNQKFKDKASLTVDKSSSTAYMQLSSPTSGDSAVYYCARRFYYGSDWYFDVWGAGSTVTVSS
VL: DIVMTQSHKFMSTSVGDRVSITCKASQDVGTAVAWYQQKPGQSPKLLIYWASTRHTGVPDRFTGSGSGTDFTLTISNVQSEDLADYFCQQYSSYPLTFGSGTKLEIK
modifications: Heavy Chain Variable Region; Light Chain Variable Region
notes: mouse monoclonal anti-Ang2 antibody; hybridoma KCLRF-BP-00417
B2: 4B9: mouse monoclonal anti-Ang2 antibody; VH SEQ ID NO: 9, VL SEQ ID NO: 11; hybridoma KCLRF-BP-00418 (antibody, V domains shown)
VH: EVQLVESGGGLVKPGGSLKLSCAASGFTFSDYYMYWVRQTPEKRLEWVATISVGGSFTYYPDSVKGRFTISRDNAKNNLYLQMSSLKSEDTAMYYCARDWGLRPWFVYWGQGTLVTVSA
VL: DIVMTQSHKFMSTSVGDRVSITCKASQDVSTAVAWYQQKPGQSPKLLIYWASTRHTGVPDRFTGSGSGTDYTLTISSVQAEDLALYYCQQHYSTPPTFGSGTKLEIK
modifications: Heavy Chain Variable Region; Light Chain Variable Region
notes: mouse monoclonal anti-Ang2 antibody; hybridoma KCLRF-BP-00418

Assays:
[1] = target: T1, hAng2 (Homo sapiens, UniProt O15123); test: OCTET affinity of mouse monoclonal anti-Ang2 antibodies against hAng2; conditions: hAng2 fixed on AR2G biosensor, 1:1 binding model
T1 sequence (O15123 19-496): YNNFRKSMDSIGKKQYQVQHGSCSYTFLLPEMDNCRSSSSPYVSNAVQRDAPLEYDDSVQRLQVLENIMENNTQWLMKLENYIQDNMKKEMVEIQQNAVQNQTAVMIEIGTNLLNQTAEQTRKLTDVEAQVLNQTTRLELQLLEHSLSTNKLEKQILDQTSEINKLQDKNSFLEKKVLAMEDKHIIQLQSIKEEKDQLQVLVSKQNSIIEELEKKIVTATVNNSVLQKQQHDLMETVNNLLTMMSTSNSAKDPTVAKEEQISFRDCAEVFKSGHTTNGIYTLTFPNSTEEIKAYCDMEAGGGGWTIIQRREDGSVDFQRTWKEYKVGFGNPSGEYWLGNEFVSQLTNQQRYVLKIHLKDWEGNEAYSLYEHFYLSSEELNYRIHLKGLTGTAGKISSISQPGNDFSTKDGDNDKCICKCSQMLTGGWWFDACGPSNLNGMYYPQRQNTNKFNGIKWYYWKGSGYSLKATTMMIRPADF
Method: The affinity of mouse monoclonal antibody against hAng2 was measured using OCTET® system (ForteBio, real-time, label-free bio-layer interferometry system for determination of affinity, kinetics, and concentration). Specifically, buffer and samples were measured in total 200 μl/well using Black 96-well plates (96 well F-type black plates, Greiner). The biosensor used for affinity measurements was hydrated for 10 min before measurement with AR2G tip (ForteBio OCTET®). After the hydration, hAng2 was diluted in 10 mM sodium acetate, pH 6.0 buffer at a concentration of 10 μg/ml, fixed on AR2G biosensor, and blocked with 1M ethanolamine. The mouse monoclonal anti-Ang2 antibodies were diluted to 50, 25, 12.5, 6.25, 3.125, and 0 nM with 1× kinetic buffer, and subjected to association for 300 seconds and dissociation for 900 seconds. For affinity measurement (KD), the association rate (K-on) and dissociation rate (K-off) were analyzed by binding curve (global) and fitted to 1:1 binding model using OCTET® data analysis v9.0.0.10 program.

[2] = system: downstream signaling of the Tie2 receptor (Akt phosphorylation) in HUVECs; test: Akt phosphorylation in HUVECs by mouse anti-Ang2 antibodies plus hAng2 (immunoblot); type: cell-based, human; conditions: serum-starved HUVECs; antibody combined with hAng2 1 μg/ml; 30 min
Method: To investigate whether the mouse anti-Ang2 antibodies induce the downstream signaling of the Tie2 receptor in endothelial cells, HUVECs (LONZA™) were treated with a combination of hAng2 protein and anti-Ang2 antibody, and then the level of Akt phosphorylation, the main downstream signaling protein of Tie2 receptor, was analyzed by immunoblotting. As a negative control group, the full-length hAng2 (R&D® Systems) alone was treated into the cells.
Specifically, HUVECs (1×10^5 cells/ml) were cultured in EGM-2 medium (LONZA™) at 37° C. in a 60 mm culture dish. Cells (90% confluency) were incubated with serum-free EBM-2 medium for 4 hrs for serum starvation. The serum-starved HUVECs were treated with a mixture of anti-Ang2 antibody and hAng2 protein (1 μg/ml, R&D® Systems) and further incubated for 30 min. The cells were washed with cold PBS, treated with lysis buffer, and lysed at 4° C. for 20 min. Then, the cell lysates were prepared by centrifugation at 13000 rpm for 15 min. 5× SDS sample buffer was added to the cell lysate and the cell lysate was boiled at 95° C. for 5 min. Then, the cell lysate was subjected to SDS PAGE and proteins were transferred to a nitrocellulose membrane (GE).
To investigate Akt phosphorylation, the blot was blocked with 5% skim milk-containing TBS-T for 1 hr at room temperature (RT), and incubated with anti-phospho-Akt antibody (S473) at 4° C. for about 8 hrs. The amount of phospho-Akt was visualized by an enhanced chemiluminescence (ECL). Then, the membrane was incubated in a stripping buffer (Thermo) for 15 min, and then reprobed with an anti-Akt antibody to determine the amount of total Akt.

Molecule	Koff [1] [s⁻¹]	Kon [1] [M⁻¹ s⁻¹]	Akt phosphorylation at S473 [2]
B1	3.54e-06	77800	strongly induced
B2	5.04e-07	137000	strongly induced
